assay: yeast display, Sf9 membrane polyspecificity reagent, FACS + sequencing; frameworks hold sequencing errors
Procedure, shortened: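 A nanobody's polyreactivity label depends on the gate it was sorted from. Yeast display cells were stained with 10% biotinylated, detergent-solubilized Sf9 membrane reagent for 1 hour at 4 °C, enriched on streptavidin microbeads and sorted by FACS. The low and high (top ~1%) gates were set on anti-HA fluorescence for expression and streptavidin fluorescence for reagent binding.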

Row | Sequence | polyreactivity (PSR sort gate)
1 | QVQLVESGGGLVQAGGSLRLSCAPYGFTFSKYAMGWYRKAPGKERELVAAITYSGGTTYYADSVKGRFTISRDNAKNTVYLQMNSLKPEDTAVYYCAADTKRRSIRYDYWGQGTQVTVSS | high polyreactivity
2 | QVQLVESGGGLVQAGGSLRLSCAQSGFTKSTYTMGWYRQAPGKESELVAAIRRSGDSTYYGDSVKGRFTISRDHAKNTVYLQMKRLKPEDTAVYYSNAVRYRFERYDYWGQGTQVTVSS | high polyreactivity
3 | QVQLVESGGGLVQAGGSLRLSCASSGFIFRGYAMGWYRQAPGKERELVAVISRSGTSTYYADSVKGRFTISRDNAKITVYLQMNSLKPEDTAVYYCAKEVWPRYIRQAYLSGYESWGQGTQVTVSS | high polyreactivity
4 | QVQLVESGGGLVQAGGSLRLSCASSGFTFYKYVMGGYRQDPGKEREMVAASSRSGGSTYYADSVKGRFTISRDNAKNTVYLQMNSLIPEDTAVYSCAKDSCGAPEGPYDYWGQGTQVTVSS | high polyreactivity
5 | QVQLVESGGGLVQAGGSLRLSCASSGFTFYSYDMGWYRQAPGKERELVAAITWYGGSTYYADSVKGRFTISRDNAKNTVYLQMKSLKQEDTAVYYCAAELFPLQHFWVAYATRRYDYWGQCTQVTVSS | low polyreactivity
6 | QVQLVESGGGLVQAGGSLRLSCASSGFTLGYYTMGWYRQAPGKESELVAAIRSNGGSTYYADSVKGRFTISRDNAKNTVYLQMNSLKPEDTAVYYCAARRWRYVGTRYDYWGQGTQVTVSS | high polyreactivity
7 | QVQLVESGGGLVQAGGSLRLSCASSGGIFYSYDMGWYRQAPGKERELVAAITWIGGSTYYADSVKGRFTISRDNAKNTVYFQMNSLKPEDTAVYYCAAEILWGGYDYWGQGTQVSVSS | low polyreactivity
8 | QVQLVESGGGLVQAGGSLRLSCASSGGTFISYAMGWYRQAPGKERELVAAISRGGSSTYYADSVKGRFTISRDNAKNTVYLQMNSLKPEDTAVYYCNKAYHRRDSEFGYWGQGTQVTVSS | high polyreactivity
9 | QVQLVESGGGLVQAGGSLRLSCASSGIIFYAYAMGWYRQAPGKERELVAAINFNTGRTYYADSVKGRFTISRDNAKNTVYLQMNSLKPEDTAVYYCAKSSYRNSGERDYWGQGTQVTVSS | high polyreactivity
10 | QVQLVESGGGLVQAGGSLRLSCASSGITFWSYAMVWYRQAPGKERELVAAISRGGDSTYYADSVKGRFTISRDNAKNTVYLQMNSLKPEDTAVYDCAALRPREEYYWGHGTQVTVSS | high polyreactivity
11 | QVQLVESGGGLVQAGGSLRLSCASSGITLYGYAMGWYRQAPGKEREFVAAISRSGDRTYYADSVKGRFTISRDNAMNTVYLQMNSLKPEDTAVYYCNAWRYDYWGQGTQVTVSS | high polyreactivity
12 | QVQLVESGGGLVQAGGSLRLSCASSGLILAPNDMGWYRQAPGKERELVAAITFRGVRTYYADSVKGRFTISRDNAKNNVYLQLNSLKPEDTAVYYCAAAVSKHYPYNYWGQGTQVSVSS | high polyreactivity
13 | QVQLVESGGGLVQAGGSLRLSCASSGPIFAYNAIPGYRQAPGKERELVADISSGGNTYYADSVKGRFTISRDNAKNTVYLQMNSLKPEDTAVYYCAADIAWYTHDHRIFDYWGQGTQVTVSS | low polyreactivity
14 | QVQLVESGGGLVQAGGSLRLSCASSGRIFDQYAMGWYRQAPGKERELVAAISSDDGSTYYADSVKGRFTISRDNAKNTVYLQMNSLKPEDTAVYYCAADAWRYVDYDYWGQGTQVTVSS | low polyreactivity
15 | QVQLVESGGGLVQAGGSLRLSCASSGRIFGSYAMGWYRQAPGKERELVAAISWRGTSTYYADSVKGRFTISRDNAKNTVYLQMNSLKPEDTAVYYCAARGLWPYDYWGQGTQVTVSS | low polyreactivity
16 | QVQLVESGGGLVQAGGSLRLSCASSGRIFLTNAMGWYRQAPGKERELVAAITSGGSTYYADSVKGRFTISRDNAKNTVFLQMNSLKPEDTAVYYCIADTDRYWPYEYDYWGQGTQVTVSS | low polyreactivity
17 | QVQLVESGGGLVQAGGSLRLSCASSGRIFNRYAMGWYRQAPGKERELVAAISSRGGSTYYADSVKGRFTISRDNAKNTVYLPMNSLKPEDTAVYYCAASAQKASYDWRYDYWGQGTQVTVSS | high polyreactivity
18 | QVQLVESGGGLVQAGGSLRLSCASSGRIFRNNVMGWYRQAHGKVRELVAAISATGTITRYADSVKGSFTISRDYSKNTVYLQMNSLKPEDTAVYYCAKDRGWWLGFIMDYWGQGSQVTVSS | low polyreactivity
19 | QVQLVESGGGLVQAGGSLRLSCASSGRIFRYYAMGWYRQAPGKERELVAAINWSGGSTYYADSVKGRFTISRDNAKNTVYLQMNSLNPEDTAVYYCYRRAYIRYDSSSLDYWGQGTQVTVSS | low polyreactivity
20 | QVQLVESGGGLVQAGGSLRLSCASSGRIFSGYAMGSYRQAPAKERELVATITSGGGTYYADSVKGRFTISRDNAKNTVYFQMNSLKPEDTAVYYCNAEKKGSFRKYNYWGQGTQVTVSS | low polyreactivity
21 | QVQLVESGGGLVQAGGSLRLSCASSGRIFSNYAMGWYRQAPGKERELVAAISWRTSNTYYADSVKGRFTISRDNAKYTVYLQMNSQKPEDTAVYYCAKYRRFRPYGSNGIYDYWGQGTQVSVSS | high polyreactivity
22 | QVQLVESGGGLVQAGGSLRLSCASSGRILYGSAMGWYRQAPGKERALVAAISWRSGSTYYADSVKGRFTISRDNAKNTVYLQMNSLKPEDTEVYYCAAGYGGYPGGYYWGQGTQVTVSS | high polyreactivity
23 | QVQLVESGGGLVQAGGSLRLSCASSGRNFYSYVMGWYRQAPGKERELVAAITRSGGTTYYADSVKGRITISRDNAKNTVYLEMYSLKPEDTAVYYCAAYVGGIRYYSWGQGTQVIVSS | high polyreactivity
24 | QVQLVESGGGLVQAGGSLRLSCASSGRTFEDYTMGWYRQAPGKVWEWVAAITGGGSTNYADSVKGRFTISRDNAKNTVYLQMYSQKPEDTAVYYCAAHYRYNWFRRYSYWGQGTQETVSS | high polyreactivity
25 | QVQLVESGGGLVQAGGSLRLSCASSGRTFFQYAMGWYRQAPGKERELVAAIRWSDSTYYADSVKGRFTISRDNAKNTVYLQMNSLKPEDTAVYYCAAPRVSQYSTKKYDYWGQGTQVTVSS | low polyreactivity
26 | QVQLVESGGGLVQAGGSLRLSCASSGRTFLRYTMGWYRQAPGKERELVAAISYRGGTTYYADSVKGRFTISRDNGKNTVYLEMNSMKADETGVYYCAARNVGRTGSDFWGQGTQVTVSS | low polyreactivity
27 | QVQLVESGGGLVQAGGSLRLSCASSGRTFRRYAMGWYRQAPGKERELVAAITWSGGSTYYADSVKGRFTFSRDYGKNTVYLQMNSLKPADTAEYYCAVSPLYSTSYYGLRKGYYWGQGTQVTVSS | high polyreactivity
28 | QVQLVESGGGLVQAGGSLRLSCASSGRTFRYYTMGWYRQAPGKEREFVAAISSTGGTYYADSVKGRFTISRDNAKNTVYFQMNSLIPVDTAVYYCAATFIKVVVNVQLYDYDYWGQGTQVTVSS | low polyreactivity
29 | QVQLVESGGGLVQAGGSLRLSCASSGRTFSGYAMGWYRQAPGKERELVASITWSGGSTYYADSVKGRFTISRDNAKNTVYLQMNSLKPDDTAVYYCARDSPRGRVGFNYWGQGTQVTVSS | low polyreactivity
30 | QVQLVESGGGLVQAGGSLRLSCASSGRTFSPYAMGWYRQAPGKERELVAAISSGGGNTYYADSVKGRITISRDNAKNTVYLQMNSLKPVDTAVYYCNAAQRRGGLGYWGLGTQVTVSS | high polyreactivity
